One experiment addresses CD25 ectodomain (UniProt P01589).
For the next experiment, the target named is T1, γc ectodomain (human, UniProt P31785 23-262, C-terminally biotinylated (staining reagent for yeast)).
T1 sequence: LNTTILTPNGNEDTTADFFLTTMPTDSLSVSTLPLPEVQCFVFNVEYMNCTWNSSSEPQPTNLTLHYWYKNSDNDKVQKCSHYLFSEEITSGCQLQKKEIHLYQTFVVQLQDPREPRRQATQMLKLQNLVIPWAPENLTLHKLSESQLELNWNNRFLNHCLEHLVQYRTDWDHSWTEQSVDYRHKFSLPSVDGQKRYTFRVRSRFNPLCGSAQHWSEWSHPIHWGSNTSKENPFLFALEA
Nature of the experiment: crystal structure.

Experimental findings from article PMC3338870 (Nature, 2012) are described below.

CD25 ectodomain, sequence (P01589 22-240): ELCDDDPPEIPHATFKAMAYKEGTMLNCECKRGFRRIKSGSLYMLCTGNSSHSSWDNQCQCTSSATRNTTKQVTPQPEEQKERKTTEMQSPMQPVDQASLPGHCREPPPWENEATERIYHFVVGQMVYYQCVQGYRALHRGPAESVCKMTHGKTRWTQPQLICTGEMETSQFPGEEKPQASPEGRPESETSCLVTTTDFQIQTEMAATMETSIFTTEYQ

Turning to “H9 F42A (from UniProt P60568 21-153) (designed binder)”, the Kd in the experiment with CD25 ectodomain is 1400 nM.
The same measure, in the same setting: then “H9 super-2 (IL-2 superkine, second generation) (from UniProt P60568 21-153) (designed binder)”, with 6.6 nM.

B1: IL-2Rβ ectodomain (receptor)
chain: AVNGTSQFTCFYNSRANISCVWSQDGALQDTSCQVHAWPDRRRWNQTCELLPVSQASWACNLILGAPDSQKLTTVDIVTLRVLCREGVRWRVMAIQDFKPFENLRLMAPISLQVVHVETHRCNISWEISQASHYFERHLEFEARTLSPGHTWEEAPLLTLKQKQEWICLETLTPDTQYEFQVRVKPLQGEFTTWSPWSQPLAFRTKPAALGKDT
modifications: C-terminally biotinylated (staining reagent for yeast)
In the case of B1, the binding result with γc ectodomain was “binds”.

The term Kd denotes the free concentration of one partner at which half of the binding sites on the other are occupied at equilibrium, for simple one-to-one binding. Lower therefore signals tighter binding.
